B1: Small glutamine-rich tetratricopeptide repeat-containing protein beta (Homo sapiens), Q96EQ0 (parent)
chain: MSSIKHLVYAVIRFLREQSQMDTYTSDEQESLEVAIQCLETVFKISPEDTHLAVSQPLTEMFTSSFCKNDVLPLSNSVPEDVGKADQLKDEGNNHMKEENYAAAVDCYTQAIELDPNNAVYYCNRAAAQSKLGHYTDAIKDCEKAIAIDSKYSKAYGRMGLALTALNKFEEAVTSYQKALDLDPENDSYKSNLKIAEQKLREVSSPTGTGLSFDMASLINNPAFISMAASLMQNPQVQQLMSGMMTNAIGGPAAGVGGLTDLSSLIQAGQQFAQQIQQQNPELIEQLRNHIRSRSFSSSAEEHS
B2: E3 ubiquitin-protein ligase LNX (Homo sapiens), Q8TBB1 (parent)
chain: MNQPESANDPEPLCAVCGQAHSLEENHFYSYPEEVDDDLICHICLQALLDPLDTPCGHTYCTLCLTNFLVEKDFCPMDRKPLVLQHCKKSSILVNKLLNKLLVTCPFREHCTQVLQRCDLEHHFQTSCKGASHYGLTKDRKRRSQDGCPDGCASLTATAPSPEVSAAATISLMTDEPGLDNPAYVSSAEDGQPAISPVDSGRSNRTRARPFERSTIRSRSFKKINRALSVLRRTKSGSAVANHADQGRENSENTTAPEVFPRLYHLIPDGEITSIKINRVDPSESLSIRLVGGSETPLVHIIIQHIYRDGVIARDGRLLPGDIILKVNGMDISNVPHNYAVRLLRQPCQVLWLTVMREQKFRSRNNGQAPDAYRPRDDSFHVILNKSSPEEQLGIKLVRKVDEPGVFIFNVLDGGVAYRHGQLEENDRVLAINGHDLRYGSPESAAHLIQASERRVHLVVSRQVRQRSPDIFQEAGWNSNGSWSPGPGERSNTPKPLHPTITCHEKVVNIQKDPGESLGMTVAGGASHREWDLPIYVISVEPGGVISRDGRIKTGDILLNVDGVELTEVSRSEAVALLKRTSSSIVLKALEVKEYEPQEDCSSPAALDSNHNMAPPSDWSPSWVMWLELPRCLYNCKDIVLRRNTAGSLGFCIVGGYEEYNGNKPFFIKSIVEGTPAYNDGRIRCGDILLAVNGRSTSGMIHACLARLLKELKGRITLTIVSWPGTFL
partner: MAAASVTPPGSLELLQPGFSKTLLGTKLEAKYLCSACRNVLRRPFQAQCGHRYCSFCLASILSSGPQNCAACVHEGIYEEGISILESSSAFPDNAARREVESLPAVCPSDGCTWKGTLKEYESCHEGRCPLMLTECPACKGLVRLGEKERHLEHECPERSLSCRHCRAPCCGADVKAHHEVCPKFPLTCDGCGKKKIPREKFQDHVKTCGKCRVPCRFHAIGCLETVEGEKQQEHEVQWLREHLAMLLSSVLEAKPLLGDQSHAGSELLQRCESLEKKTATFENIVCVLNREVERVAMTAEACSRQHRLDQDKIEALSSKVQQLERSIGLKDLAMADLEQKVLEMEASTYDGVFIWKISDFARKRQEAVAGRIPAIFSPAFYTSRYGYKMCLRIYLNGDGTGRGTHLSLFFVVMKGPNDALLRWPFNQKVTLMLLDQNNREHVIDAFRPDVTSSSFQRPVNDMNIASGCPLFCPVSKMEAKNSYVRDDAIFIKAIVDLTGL
B3: E3 ubiquitin-protein ligase LNX (Homo sapiens), Q8TBB1 (parent)
chain: B2 chain
partner: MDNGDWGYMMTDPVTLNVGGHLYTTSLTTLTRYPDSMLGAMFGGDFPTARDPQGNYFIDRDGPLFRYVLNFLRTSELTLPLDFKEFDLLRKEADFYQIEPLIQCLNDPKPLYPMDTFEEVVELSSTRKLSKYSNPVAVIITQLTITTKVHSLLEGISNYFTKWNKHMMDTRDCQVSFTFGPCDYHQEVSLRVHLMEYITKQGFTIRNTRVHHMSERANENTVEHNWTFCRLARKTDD
B4: E3 ubiquitin-protein ligase LNX (Homo sapiens), Q8TBB1 (parent)
chain: B2 chain
partner: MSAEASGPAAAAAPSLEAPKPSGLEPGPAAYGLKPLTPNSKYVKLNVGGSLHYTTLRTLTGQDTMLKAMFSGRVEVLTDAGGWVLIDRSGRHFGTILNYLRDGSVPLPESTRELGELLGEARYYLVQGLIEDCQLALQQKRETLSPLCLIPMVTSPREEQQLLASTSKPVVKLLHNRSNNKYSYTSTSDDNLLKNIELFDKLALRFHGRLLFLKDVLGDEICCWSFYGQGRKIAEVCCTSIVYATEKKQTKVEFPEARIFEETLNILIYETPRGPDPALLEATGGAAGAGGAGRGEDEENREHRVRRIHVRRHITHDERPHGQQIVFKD
B5: BRCA1-A complex subunit RAP80 (Homo sapiens), Q96RL1 (parent)
chain: MPRRKKKVKEVSESRNLEKKDVETTSSVSVKRKRRLEDAFIVISDSDGEEPKEENGLQKTKTKQSNRAKCLAKRKIAQMTEEEQFALALKMSEQEAREVNSQEEEEEELLRKAIAESLNSCRPSDASATRSRPLATGPSSQSHQEKTTDSGLTEGIWQLVPPSLFKGSHISQGNEAEEREEPWDHTEKTEEEPVSGSSGSWDQSSQPVFENVNVKSFDRCTGHSAEHTQCGKPQESTGRGSAFLKAVQGSGDTSRHCLPTLADAKGLQDTGGTVNYFWGIPFCPDGVDPNQYTKVILCQLEVYQKSLKMAQRQLLNKKGFGEPVLPRPPSLIQNECGQGEQASEKNECISEDMGDEDKEERQESRASDWHSKTKDFQESSIKSLKEKLLLEEEPTTSHGQSSQGIVEETSEEGNSVPASQSVAALTSKRSLVLMPESSAEEITVCPETQLSSSETFDLEREVSPGSRDILDGVRIIMADKEVGNKEDAEKEVAISTFSSSNQVSCPLCDQCFPPTKIERHAMYCNGLMEEDTVLTRRQKEAKTKSDSGTAAQTSLDIDKNEKCYLCKSLVPFREYQCHVDSCLQLAKADQGDGPEGSGRACSTVEGKWQQRLKNPKEKGHSEGRLLSFLEQSEHKTSDADIKSSETGAFRVPSPGMEEAGCSREMQSSFTRRDLNESPVKSFVSISEATDCLVDFKKQVTVQPGSRTRTKAGRGRRRKF
partner: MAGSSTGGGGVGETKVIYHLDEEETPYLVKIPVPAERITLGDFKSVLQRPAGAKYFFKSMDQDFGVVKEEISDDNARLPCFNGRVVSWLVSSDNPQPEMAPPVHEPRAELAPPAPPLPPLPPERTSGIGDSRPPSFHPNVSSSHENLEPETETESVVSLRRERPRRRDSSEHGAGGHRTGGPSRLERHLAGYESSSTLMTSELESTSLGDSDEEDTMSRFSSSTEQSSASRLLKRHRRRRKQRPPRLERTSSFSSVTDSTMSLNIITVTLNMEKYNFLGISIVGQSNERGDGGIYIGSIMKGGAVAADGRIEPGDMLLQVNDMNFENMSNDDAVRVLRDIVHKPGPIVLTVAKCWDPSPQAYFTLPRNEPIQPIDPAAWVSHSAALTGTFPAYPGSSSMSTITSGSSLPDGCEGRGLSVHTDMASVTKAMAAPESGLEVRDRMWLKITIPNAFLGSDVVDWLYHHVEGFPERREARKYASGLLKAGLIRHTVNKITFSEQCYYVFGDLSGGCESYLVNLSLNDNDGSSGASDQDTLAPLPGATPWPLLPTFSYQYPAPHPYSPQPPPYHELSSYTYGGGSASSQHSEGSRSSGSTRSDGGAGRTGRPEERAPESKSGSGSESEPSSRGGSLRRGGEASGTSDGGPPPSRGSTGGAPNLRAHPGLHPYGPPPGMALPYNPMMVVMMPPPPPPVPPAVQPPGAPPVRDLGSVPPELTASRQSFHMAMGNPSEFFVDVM

Variants of: B1
Conditions: with fbln4_human EFEMP2, O95967
Sequence of fbln4_human EFEMP2, O95967 (O95967 whole entry): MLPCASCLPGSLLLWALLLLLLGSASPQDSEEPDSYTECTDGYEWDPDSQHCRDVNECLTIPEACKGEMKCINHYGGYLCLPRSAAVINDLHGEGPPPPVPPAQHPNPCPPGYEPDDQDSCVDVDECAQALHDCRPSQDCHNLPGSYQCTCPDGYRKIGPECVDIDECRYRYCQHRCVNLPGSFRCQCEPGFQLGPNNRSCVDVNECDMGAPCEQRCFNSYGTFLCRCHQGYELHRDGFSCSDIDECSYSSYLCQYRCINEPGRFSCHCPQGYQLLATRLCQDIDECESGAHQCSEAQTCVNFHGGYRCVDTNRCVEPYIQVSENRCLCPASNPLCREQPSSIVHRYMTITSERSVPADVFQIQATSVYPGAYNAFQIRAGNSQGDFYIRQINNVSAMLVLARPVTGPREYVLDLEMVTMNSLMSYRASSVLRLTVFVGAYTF

Row | Variant | effect of a mutation on the interaction
1 | MSSIKHLVYAVIRFLREQSQMDTYTSDEQESLEVAIQCLETVFKISPEDTHLAVSQPLTEMFTSSFCKNDVLPLSNSVPEDVGKADQLKDEGNNHMKEENYAAAVDCYTQAIELDPNNAVYYCNRAAAQSKLGHYTDAIKDCEKAIAIDSKYSKAYGRMGLALTALNKFEEAVTSYQKALDLDPENDSYKSNLKIAEQKLREVSSPTGTGLSFDMASLINNPAFISMAASLMQNPQVQQLMSGMMTNAIGGPAAGVGGLTDLSSLIQAGQQFAQQIQQQNPELIEQLRNHIWSRSFSSSAEEHS [R292W] | with no effect

Variants of: B1
Conditions: with il6rb_human IL6ST

Row | Variant | effect of a mutation on the interaction
2 | MSSIKHLVYAVIRFLREQSQMDTYTSDEQESLEVAIQCLETVFKISPEDTHLAVSQPLTEMFTSSFCKNDVLPLSNSVPEDVGKADQLKDEGNNHMKEENYAAAVDCYTQAIELDPNNAVYYCNRAAAQSKLGHYTDAIKDCEKAIAIDSKYSKAYGRMGLALTALNKFEEAVTSYQKALDLDPENDSYKSNLKIAEQKLREVSSPTGTGLSFDMASLINNPAFISMAASLMQNPQVQQLMSGMMTNAIGGPAAGVGGLTDLSSLIQAGQQFAQQIQQQNPELIEQLRNHIWSRSFSSSAEEHS [R292W] | disrupting interaction strength

Variants of: B2
Conditions: with traf2_human TRAF2, Q12933

Row | Variant | effect of a mutation on the interaction
3 | E295K | disrupting interaction strength

Variants of: B3
Conditions: with kctd6_human KCTD6, Q8NC69

Row | Variant | effect of a mutation on the interaction
4 | E295K | disrupting interaction strength

Variants of: B4
Conditions: with bacd1_human KCTD13, Q8WZ19

Row | Variant | effect of a mutation on the interaction
5 | E295K | disrupting interaction strength

Variants of: B5
Conditions: with dvl2_human DVL2, O14641

Row | Variant | effect of a mutation on the interaction
6 | R34H | disrupting interaction strength

Variants of: B5
Conditions: with dvl2_human DVL2, O14641
Remark: another data set of the same source

Row | Variant | effect of a mutation on the interaction
7 | Q631E | with no effect
